First the molecules themselves.
B1: wild type GSI motif peptide (CPRPLKEGSITQGTPLKYDTG), SMRT amino acids 1450-1469 with an amino-terminal cysteine [modified: BODIPY-TMR coupled to the N-terminal cysteine; BODIPY-TMR coupled to the N-terminal cysteine] [not stated] / HDAC4 … (parent complex)
chain 1: CPRPLKEGSITQGTPLKYDTG
chain 2: TKPRFTTGLVYDTLMLKHQCTCGSSSSHPEHAGRIQSIWSRLQETGLRGKCECIRGRKATLEELQTVHSEAHTLLYGTNPLNRQKLDSKKLLGSLASVFVRLPCGGVGVDSDTIWNEVHSAGAARLAVGCVVELVFKVATGELKNGFAVVRPPGHHAEESTPMGFCYFNSVAVAAKLLQQRLSVSKILIVDWDVHHGNGTQQAFYSDPSVLYMSLHRYDDGNFFPGSGAPDEVGTGPGVGFNVNMAFTGGLDPPMGDAEYLAAFRTVVMPIASEFAPDVVLVSSGFDAVEGHPTPLGGYNLSARCFGYLTKQLMGLAGGRIVLALEGGHDLTAICDASEACVSALLGNELDPLPEKVLQQRPNANAVRSMEKVMEIHSKYWRCLQRTTSTAGRSLIEAQTCENEEAETVT

The test covers variants of B1. Nature of the test: fluorescence anisotropy. (In fluorescence polarisation assays a small probe gives low polarisation when free and higher when bound to something large.)
With chain 1 CPRPLKEGSITEGTPLKYDTG, the Kd (as a rule, the equilibrium constant for the complex coming apart) came to 17.7 µM.

As for chain 1 CPRPLKEGSITAGTPLKYDTG, the Kd is 5.47 µM.

With chain 1 CPRPLKEGSIAQGTPLKYDTG, the equilibrium dissociation constant (Kd) came out at 14.4 µM.

For chain 1 CPRPLKEGSIVQGTPLKYDTG, the Kd was 16.9 µM.

chain 1 CPRPLKEGSITQGTALKYDTG: the Kd was found to be 47 µM.

Values taken from article PMC4505066 (2015).
